Laboratory results from patent publication US20210130436A1 (published 2021).
Numbering of substitutions follows the chain as printed. Names may count otherwise.

B1: variant CD80 IgV-Fc V22A/E35D/M47L/A71G (Fc fusion, not shown: a dimerising Fc or GST)
chain: VIHVTKEVKEVATLSCGHNVSAEELAQTRIYWQKDKKMVLTMMSGDLNIWPEYKNRTIFDITNNLSIVILGLRPSDEGTYECVVLKYEKDAFKREHLAEVTLSVKAD
B2: CD80 E35D/M47V/N48K/V68M/K89N IgV-Fc (Fc fusion, not shown: small tags and cut ends; a dimerising Fc or GST)
chain: B1 chain with A22V, L47V, N48K, V68M, G71A, K89N
B3: CD80 E35D/N48K/V68M/K89N IgV-Fc (Fc fusion, not shown: small tags and cut ends; a dimerising Fc or GST)
chain: B1 chain with A22V, L47M, N48K, V68M, G71A, K89N
B4: variant CD80 IgV-Fc R29C/E35D/M47L/V68M/A71G/L85M (Fc fusion, not shown: small tags and cut ends; a dimerising Fc or GST)
chain: B1 chain with A22V, R29C, V68M, L85M
B5: CD80 E35D/D46V/M47V/V68M/K89N IgV-Fc (Fc fusion, not shown: small tags and cut ends; a dimerising Fc or GST)
chain: B1 chain with A22V, D46V, L47V, V68M, G71A, K89N
B6: CD80 E35D/M47V/K89N IgV-Fc (Fc fusion, not shown: small tags and cut ends; a dimerising Fc or GST)
chain: B1 chain with A22V, L47V, G71A, K89N
B7: variant CD80 IgV-Fc Q33L/E35D/M47V/T62S/V68M/L85M (Fc fusion, not shown: small tags and cut ends; a dimerising Fc or GST)
chain: B1 chain with A22V, Q33L, L47V, T62S, V68M, G71A, L85M
B8: CD80 M47V/V68M/K89N IgV-Fc (Fc fusion, not shown: small tags and cut ends; a dimerising Fc or GST)
chain: B1 chain with A22V, D35E, L47V, V68M, G71A, K89N
B9: variant CD80 IgV-Fc E35D/D46E/M47V/V68M/L85Q (Fc fusion, not shown: small tags and cut ends; a dimerising Fc or GST)
chain: B1 chain with A22V, D46E, L47V, V68M, G71A, L85Q
B10: variant CD80 IgV-Fc E35D/D46E/M47I/T62A/V68M/L85M/Y87C (Fc fusion, not shown: small tags and cut ends; a dimerising Fc or GST)
chain: B1 chain with A22V, D46E, L47I, T62A, V68M, G71A, L85M, Y87C
B11: variant CD80 IgV-Fc E35D/M47V/V68M/L85M/Y87D (Fc fusion, not shown: small tags and cut ends; a dimerising Fc or GST)
chain: B1 chain with A22V, L47V, V68M, G71A, L85M, Y87D
B12: CD80 N48K/K89N IgV-Fc (Fc fusion, not shown: small tags and cut ends; a dimerising Fc or GST)
chain: B1 chain with A22V, D35E, L47M, N48K, G71A, K89N
B13: CD80 E35D/N48K/V68M IgV-Fc (Fc fusion, not shown: small tags and cut ends; a dimerising Fc or GST)
chain: B1 chain with A22V, L47M, N48K, V68M, G71A
B14: WT CD80 ECD-Fc (Abcam) (Fc fusion, UniProt P33681 35-242, looked up)
chain: VIHVTKEVKEVATLSCGHNVSVEELAQTRIYWQKEKKMVLTMMSGDMNIWPEYKNRTIFDITNNLSIVILALRPSDEGTYECVVLKYEKDAFKREHLAEVTLSVKADFPTPSISDFEIPTSNIRRIICSTSGGFPEPHLSWLENGEELNAINTTVSQDPETELYAVSSKLDFNMTTNHSFMCLIKYGHLRVNQTFNWNTTKQEHFPDN
notes: extracellular domain; not shown: Fc of the bought product, not described

What was measured:
[1] = target: T1, CD28 on Jurkat/IL2 reporter cells (human, UniProt P10747 19-220); assay: flow cytometry, Jurkat cells (CD28)
T1 construct: whole, on cells; Endogenous CD28 of Jurkat cells; also called Jurkats (CD28)

human PD-L1 on CHO cells [2] = target: T2, human PD-L1 on CHO cells (human, UniProt Q9NZQ7 19-290); assay: flow cytometry; PD-L1 MFI over CD28 MFI
T2 construct: whole, on cells; CHO cells stably expressing PD-L1; also called huPD-L1
T2 sequence (Q9NZQ7 19-290): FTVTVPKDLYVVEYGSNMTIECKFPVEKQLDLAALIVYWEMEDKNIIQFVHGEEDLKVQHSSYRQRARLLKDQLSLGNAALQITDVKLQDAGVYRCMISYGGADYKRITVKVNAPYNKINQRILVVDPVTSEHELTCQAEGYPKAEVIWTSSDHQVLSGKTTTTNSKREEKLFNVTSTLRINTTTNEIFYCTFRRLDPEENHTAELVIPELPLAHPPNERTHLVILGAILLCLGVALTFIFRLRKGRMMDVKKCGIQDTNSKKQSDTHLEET

human CTLA4 on CHO cells [3] = target: T3, human CTLA4 on CHO cells (human, UniProt P16410 36-223); assay: flow cytometry, CHO cells stably expressing CTLA4
T3 construct: whole, on cells; CHO cells stably expressing CTLA4; also called huCTLA4
T3 sequence (P16410 36-223): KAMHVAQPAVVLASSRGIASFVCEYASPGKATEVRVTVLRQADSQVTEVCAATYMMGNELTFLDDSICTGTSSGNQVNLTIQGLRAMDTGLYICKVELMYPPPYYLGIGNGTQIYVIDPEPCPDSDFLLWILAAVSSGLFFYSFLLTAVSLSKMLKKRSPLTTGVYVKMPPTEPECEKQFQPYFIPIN

human PD-L1 on CHO cells [4] = target: T2, human PD-L1 on CHO cells; assay: flow cytometry, CHO cells stably expressing PD-L1
human CTLA4 on CHO cells [5] = target: T3, human CTLA4 on CHO cells; assay: flow cytometry, CHO/CTLA4 cells; MFI relative to WT CD80
human PD-L1 on CHO cells [6] = target: T2, human PD-L1 on CHO cells; assay: flow cytometry, CHO/PD-L1 cells; MFI relative to WT CD80
[7] = target: T1, CD28 on Jurkat/IL2 reporter cells; assay: flow cytometry, Jurkat cells (CD28); MFI relative to WT CD80
[8] = target: T4, CD28 endogenously expressed on Jurkat/IL2 reporter cells (human, UniProt P10747 19-220); assay: flow cytometry, Jurkat cells (CD28), Fc fusion at 33.3 nM
T4 construct: whole, on cells; Target on Jurkat cells; also called Jurkats (CD28)

[9] = target: T5, human CTLA4 expressed on CHO cells (human, UniProt P16410 36-223); assay: flow cytometry, CHO cells stably expressing CTLA4, Fc fusion at 33.3 nM
T5 construct: whole, on cells; Target on CHO cells stably expressing CTLA4; also called huCTLA4
T5 sequence (P16410 36-223): as above

[10] = target: T6, human PD-L1 expressed on CHO cells (human, UniProt Q9NZQ7 19-290); assay: flow cytometry, CHO cells stably expressing PD-L1, Fc fusion at 33.3 nM
T6 construct: whole, on cells; Target on CHO cells stably expressing PD-L1; also called huPD-L1
T6 sequence (Q9NZQ7 19-290): as the sequence (Q9NZQ7 19-290) above

[11] = target: T7, human CTLA4 (huCTLA4), full-length, stably expressed on CHO cells (human, UniProt P16410 36-223); assay: flow cytometry, CHO cells expressing huCTLA4
T7 construct: whole, on cells
T7 sequence (P16410 36-223): as the sequence (P16410 36-223) above

[12] = target: T8, human PD-L1 (huPD-L1), full-length, stably expressed on CHO cells (human, UniProt Q9NZQ7 19-290); assay: flow cytometry, CHO cells expressing huPD-L1
T8 construct: whole, on cells
T8 sequence (Q9NZQ7 19-290): as the sequence (Q9NZQ7 19-290) above

| Binder | MFI at 33.3 nM [8] [MFI] | MFI at 33.3 nM [9] [MFI] | MFI at 33.3 nM [10] [MFI] | MFI at 33.3 nM [11] [MFI] | also measured |
| --- | --- | --- | --- | --- | --- |
| B1 |  |  |  |  | MFI at 33.3 nM [1]: 990 MFI; Ratio of PDL1:CD28 (human PD-L1 on CHO cells [2]): 8 ratio; MFI at 33.3 nM (human CTLA4 on CHO cells [3]): 21900 MFI; MFI at 33.3 nM (human PD-L1 on CHO cells [4]): 8170 MFI; Fold change to WT CD80 (human CTLA4 on CHO cells [5]): 11.4 fold; Fold change to WT CD80 (human PD-L1 on CHO cells [6]): 116 fold; Fold change to WT CD80 [7]: 15 fold |
| B2 | 1350 | 20900 | 14800 |  |  |
| B3 | 1530 |  | 17400 |  |  |
| B4 |  |  |  | 91 |  |
| B5 | 2120 |  | 21600 |  |  |
| B6 | 507 | 39300 | 4340 |  |  |
| B7 |  |  |  | 86 |  |
| B8 | 1320 | 24800 | 11800 |  |  |
| B9 |  |  |  | 15500 | MFI at 33.3 nM [12]: 1720 MFI |
| B10 |  |  |  | 17000 |  |
| B11 |  |  |  | 13900 | MFI at 33.3 nM [12]: 1720 MFI |
| B12 | 170 | 4370 |  |  |  |
| B13 | 642 | 33600 |  |  |  |
| B14 | 709 |  |  |  |  |
